From patent US8728787B2, “Fungal laccases and uses thereof” (Academia Sinica, priority 2010, dated 2014)

Columns and labels:
[1] = Guaiacol oxidation (laccase kinetics, optimum temperature and pH); assay type: biochemical; conditions: guaiacol as substrate
Description: The effect of temperature on laccase activity was studied using the standard enzymatic activity assay described above under various reaction temperatures (i.e., 20-80° C.). For thermal stability study, the enzyme was pre-incubated in a 50 mM citric acid buffer (pH 3.0) at 50-80° C. for 0-180 min and the residual enzymatic activity was then determined.
The effect of pH on the laccase activity was investigated at a pH range of 2.5-6.0. Four buffer systems were used in this study: 50 mM glycine-HCl buffer (pH 2.5), 50 mM citric acid buffer (pH 3.0-5.5), 50 mM sodium phosphate buffer (pH 6.0-8.0), and 50 mM glycine-NaOH buffer (pH 9.0-10). To determine the protein stability of laccase at a wide range of pH conditions, the enzyme (0.1 mg/mL in each reaction) was pre-incubated at pH 3.0-10 at 25° C. for 0-5 days and then the residual enzyme activity was determined.
Kinetic parameters Km and Vmax were determined as follows. […] The oxidation reactions of guaiacol and 2,6-DMP were monitored by determining OD436 values (ε=6,400 M^−1cm^−1) and OD468 values (ε=49,600 M^−1 cm^−1), respectively. The kinetic parameters were determined by nonlinear regression analysis (ENZFITTER software program, Elsevier-Biosoft, Cambridge, UK) using the Michaelis-Menten model.
To determine the effect of temperature on the enzyme activity, a standard enzymatic activity assay was performed under various temperatures (i.e., 30-90° C.). For thermal stability study, laccase was pre-incubated in a 50 mM citric acid buffer (pH 3.0) at 30-80° C. for 10-40 min and the residual enzymatic activity was then determined by the standard assay. See Example 1 above. Values of t1/2 were determined accordingly.
The effect of pH on laccase activity was investigated at pH 2.0-6.0, using a glycine-HCl buffer (pH 2.0-2.5) or a citric acid buffer (pH 2.5-6.0). To determine protein stability in different pH conditions, the enzyme was pre-incubated at pH 2.5-4.5 at 25° C. for 0-2 h and the residual enzyme activity was determined by the standard enzymatic assay.
Kinetic parameters were determined following conventional methods. See also Example 1 above.

[2] = Thermal denaturation by differential scanning calorimetry (DSC); assay type: physicochemical; conditions: 10 mM sodium phosphate buffer (pH 6.0)
Description: Thermal denaturation of laccase was determined by differential scanning calorimetry (DSC) using a Nano Differential Scanning calorimeter (N-DSC III) (TA Instruments, New Castle, Del.) at a heating rate of 1° C./min under a temperature from 30 to 95° C. and excess pressure of 3.0 atm. The protein concentration was 0.55 mg/ml in 10 mM sodium phosphate buffer (pH 6.0). Baseline corrections were performed and smoothed by subtracting a buffer thermogram. The data were then analyzed using the Launch NanoAnalyze Software (TA Instruments, New Castle, Del.), assuming a two-state unfolding model. See Pace et al., The Protein Structure: A Practical Approach; Creighton T. E., Ed.: IRL Press; Oxford U.K., pp. 311-330; 1989.

[3] = Laccase stability on extended incubation with ethanol or methanol; assay type: physicochemical; conditions: room temperature, pH 6.0
Description: To examine the effect of ethanol on Cerrena sp. WR1 laccase stability, the enzyme was incubated in a 50 mM sodium phosphate buffer (pH 6.0) containing 1%, 10%, or 25% ethanol at room temperature for up to 52 days and the residual enzyme activity was measured at different time points during incubation. A T. versicolor laccase (LccTv) was used as a reference enzyme. […] Differently, Lcc3 retained around 90% activity after being incubated with 25% ethanol for 10 days and retained approximately 50% enzymatic activity after a 40-day incubation period. This enzyme also retained about 50% enzymatic activity after a 45-day incubation period with 10% ethanol and a 40-day incubation without ethanol.
The laccase stability after incubation with methanol or ethanol for an extended period was further investigated. […] The enzyme activity of the Lentinus sp. laccase maintained as 95% in 25% ethanol while that of the reference laccase reduced to 41%.

[4] = pH 3
Description: Lignin degradation reaction was carried out by mixing a crude laccase broth (containing 100 U enzyme) with 50 ml reaction buffer (50 mM citric acid solution; pH 3.0) containing 100 mg smashed rice straw materials. The mixture was incubated at 30-80° C. for 20-60 min. Sodium azide was added to the mixture at a final concentration of 1 mM to stop the enzymatic reaction. The processed rice straw was collected by filtration and dried at 60° C. The lignin contents in the rice straw before and after treatment were determined following the method described in kappa number of ISO 302:2004 (International Organization for Standardization).
The lignin degradation reaction and the dye decoloration reaction were carried out following the methods described in Example 1 above. […] See FIG. 9, pane A. The lignin degradation efficiencies were 22%-25% at 40-50° C. for 40 min and 32% at 40° C. for 60 min.

B1: Lcc3: laccase purified from Cerrena sp. WR1, GenBank accession no. GQ899203; SEQ ID NO:3 mature, 9 precursor (protein)
chain: AIGPVADLHITDANVSPDGFTRPAVLAGGTFPGPLITGKQGDNFQINVIDELTDATMLKSTSIHWHGIFQKGTNWADGPSFVNQCPITTGNSFLYDFSVPDQTGTYWYHSHLSTQYCDGLRGALVIYDDNDPHKDLYDVDDETTVITLADWYHTQARLITGVPVSDATLINGLGRYLNGPTDAPLAVITVDQGKRYRFRLVSISCDPNFVFSIDNHSMTVIEVDAVNSQPLVVDSIQIFAAQRYSFILNANQSVGNYWIRANPNLGNTGFTNGINSAILRYNGAPVAEPNTTQTASTNPLNEVNLHPLVPTPVPGTPQPGGVDVVQNLVLGFSGGKFTINGVAFSPPTVPVLLQILSGTTTAQDLLPTGSIIELPLGKTVELTLAAGVLGGPHPFHLHGHTFHVVRSAGQTTPNYVDPILRDTVNTGAAGDNVTIRFTTDNPGPWFLHCHIDWHLEAGFAVVFAEGLNQTNAANPTPDAWNNLCDLYNALPAGDQ
modifications: Cerrena sp
For B1, which optimal temperature [1] is on record?
The optimal temperature was 70 °C.

What about the “pH of maximal activity” value [1] of the same molecule?
The value was 4.5.

What about the Optimum temperature ([1]; at pH 4.5) of the same molecule?
Its Optimum temperature is 70 (at pH 4.5) ° C.

And the Specific activity ([1]; optimum temperature and pH)?
The Specific activity was 189.7 U/mg.

What about the “midpoint temperature (Tm)” value [2] of the same molecule?
The value was 73.95 °C.

And the activity retained ([3]; 1% ethanol, 52-day incubation)?
Its activity retained is “about 61%”.

What about the activity retained ([3]; 10% ethanol, 45-day incubation) of the same molecule?
The activity retained was “approximately 50%”.

And the activity retained ([3]; 25% ethanol, 40-day incubation)?
Its activity retained is “approximately 50%”.

And the activity retained ([3]; 25% ethanol, 10 days)?
The activity retained was “around 90%”.

And the activity retained ([3]; without ethanol, 40-day incubation)?
Its activity retained is “approximately 50%”.

And the “highest lignin degradation efficiency per 100 U” value [4]?
The value was “around 22.9%”.
